Laboratory results: the supplement of paper PMC9233669
This sample holds only a part of the variants without activity.

Experiments:
biotinyl-Trp-oxazolone = experiment: self-aminoacylation, catalytic enhancement (BWO) (fold over background); higher = more active; k-Seq, kA / k0A0; sequences stand for … in GGGAAUGGAUCCACAUCUACGAAUUC…UUCACUGCAGACUUGACGAAGCUG
Procedure, shortened: (§1)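 Working in 50 μL HEPES/NaCl/KCl/MgCl2/CaCl2 buffer with 5% acetonitrile at pH 6.9–7.0, mutagenized RNA pools (0.43 μM; 21-nt variable region) were reacted with 2–1250 μM of each biotinyl-aminoacyl-oxazolone for 90 minutes at room temperature. Streptavidin capture followed, with quantification by triplicate qPCR and Illumina sequencing. Catalytic enhancement is reported as median kA over the uncatalyzed rate, the low-activity peak of a bimodal Gaussian fit to the data.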

biotinyl-Phe-oxazolone = experiment: self-aminoacylation, catalytic enhancement (BFO) (fold over background); higher = more active; k-Seq, kA / k0A0; sequences stand for … in GGGAAUGGAUCCACAUCUACGAAUUC…UUCACUGCAGACUUGACGAAGCUG
Procedure, shortened: as §1

biotinyl-Leu-oxazolone = experiment: self-aminoacylation, catalytic enhancement (BLO) (fold over background); higher = more active; k-Seq, kA / k0A0; sequences stand for … in GGGAAUGGAUCCACAUCUACGAAUUC…UUCACUGCAGACUUGACGAAGCUG
Procedure, shortened: as §1

biotinyl-Met-oxazolone = experiment: self-aminoacylation, catalytic enhancement (BMO) (fold over background); higher = more active; k-Seq, kA / k0A0; sequences stand for … in GGGAAUGGAUCCACAUCUACGAAUUC…UUCACUGCAGACUUGACGAAGCUG
Procedure, shortened: as §1

biotinyl-Val-oxazolone = experiment: self-aminoacylation, catalytic enhancement (BVO) (fold over background); higher = more active; k-Seq, kA / k0A0; sequences stand for … in GGGAAUGGAUCCACAUCUACGAAUUC…UUCACUGCAGACUUGACGAAGCUG
Procedure, shortened: as §1

biotinyl-Ile-oxazolone = experiment: self-aminoacylation, catalytic enhancement (BIO) (fold over background); higher = more active; k-Seq, kA / k0A0; sequences stand for … in GGGAAUGGAUCCACAUCUACGAAUUC…UUCACUGCAGACUUGACGAAGCUG
Procedure, shortened: as §1

Sequence | self-aminoacylation (biotinyl-Trp-oxazolone) | self-aminoacylation (biotinyl-Phe-oxazolone) | self-aminoacylation (biotinyl-Leu-oxazolone) | self-aminoacylation (biotinyl-Met-oxazolone) | self-aminoacylation (biotinyl-Val-oxazolone) | self-aminoacylation (biotinyl-Ile-oxazolone)
AUUCACCGAGGUCAUCGGUUG [Fam2.2 aminoacylation ribozyme variant] | 2.6 | 29 | 4.89 | 3.52 |  | 
AUUCACCUAAUUCAUCGGGUG [Fam2.2 aminoacylation ribozyme variant] | 3.32 | 15.5 | 3.05 | 2.68 |  | 
AUUCACCUAGCUGAUCGGGUG [Fam2.2 aminoacylation ribozyme variant] |  | 8.31 | 2.82 |  | 2.63 | 2.29
AUUCACCUAGGACAUCGGGGG [Fam2.2 aminoacylation ribozyme variant] |  | 10.4 | 2.63 | 3.13 | 2.18 | 
AUUCACCUAGGUAACCGGGUG [Fam2.2 aminoacylation ribozyme variant] | 2.56 | 11 | 2.85 | 2.57 |  | 
AUUCACCUAGGUCAUCGCGUC [Fam2.2 aminoacylation ribozyme variant] | 2.85 | 9.82 |  | 2.3 | 2.15 | 
AUUCACCUCGGUCAUCGAGUG [Fam2.2 aminoacylation ribozyme variant] | 2.51 | 13.1 | 2.88 | 2.33 |  | 
AUUCACCUGGGUCAUCGGCUG [Fam2.2 aminoacylation ribozyme variant] |  | 8.1 | 2.27 |  | 2.54 | 2.01
CAACUUCAAACAAUCGGGCUG [Fam1A.1 aminoacylation ribozyme variant] | 20.1 | 23.8 | 2.58 |  | 2.25 | 2.18
CCACAACUCAAGCAAUCGGUC [Fam1B.1 aminoacylation ribozyme variant] |  | 2.62 |  |  | 2.23 | 
CCACACGUCAAGCAAUCCGUC [Fam1B.1 aminoacylation ribozyme variant] | 2.45 |  |  |  | 2.22 | 
CCACACUCCAAGCAUUCGGUC [Fam1B.1 aminoacylation ribozyme variant] |  |  |  |  | 2.83 | 
CCACACUGCAAGCAAUCGGGC [Fam1B.1 aminoacylation ribozyme variant] | 3 |  |  |  | 2.56 | 
CCACACUUCAAGCAAUGGGCC [Fam1B.1 aminoacylation ribozyme variant] |  |  |  |  | 2.81 | 
CCACACUUCAAGCAGUCGGGC [Fam1B.1 aminoacylation ribozyme variant] |  |  | 2.19 | 2.5 | 2.36 | 2.15
CCACACUUCAAGCAUUCCGUC [Fam1B.1 aminoacylation ribozyme variant] | 3.14 |  | 2.51 | 2.55 | 3 | 3.19
CCACACUUCAAGCCAUCGGUU [Fam1B.1 aminoacylation ribozyme variant] | 2.06 | 2.81 |  |  | 2.18 | 

Sequence | self-aminoacylation (biotinyl-Trp-oxazolone) | self-aminoacylation (biotinyl-Phe-oxazolone) | self-aminoacylation (biotinyl-Leu-oxazolone) | self-aminoacylation (biotinyl-Met-oxazolone) | self-aminoacylation (biotinyl-Val-oxazolone) | self-aminoacylation (biotinyl-Ile-oxazolone)
CCACACUUGAAGCAAUCGGCC [Fam1B.1 aminoacylation ribozyme variant] | 2.29 |  | 2.24 |  | 3.19 | 
CCAGACUUCAAGCAAUCGGGC [Fam1B.1 aminoacylation ribozyme variant] | 3.72 |  | 2.69 |  | 3.13 | 2.71
CCCCACUCCAAGCAAUCGGUC [Fam1B.1 aminoacylation ribozyme variant] | 6.53 | 8.62 |  |  | 2.19 | 
CCCCACUUCAAGCAGUCGGUC [Fam1B.1 aminoacylation ribozyme variant] | 3.29 | 3.77 | 2.2 |  | 2.23 | 
CCCCACUUCGAGCAAUCGGUC [Fam1B.1 aminoacylation ribozyme variant] | 4.05 | 5.48 | 2.16 |  | 2.51 | 2.2
CCCCAUUUCAAGCAAUCGGUC [Fam1B.1 aminoacylation ribozyme variant] | 7.54 | 9.72 |  |  | 2.07 | 2.26
CCGCACCUCAAGCAAUCGGUC [Fam1B.1 aminoacylation ribozyme variant] | 5.62 | 6.19 |  |  | 2.16 | 
CCGCUUCAAACAAUCGGUCUG [Fam1A.1 aminoacylation ribozyme variant] | 95.9 | 257 | 4.82 | 2.68 | 2.4 | 
CUACGUCAAACAAUCGGCCUG [Fam1A.1 aminoacylation ribozyme variant] | 4.49 |  | 2.69 | 2.29 | 2.84 | 2.56
CUACUUCAAACAAUCGGCCGG [Fam1A.1 aminoacylation ribozyme variant] |  | 2.44 |  |  |  | 2.09
CUUACCCUGCUCAUCGAGUGA [Fam2.1 aminoacylation ribozyme variant] | 2.2 | 2.86 | 2.19 | 2.57 |  | 
CUUACCCUGGUCAUCGAGGGA [Fam2.1 aminoacylation ribozyme variant] |  |  |  |  | 2.04 | 
CUUACCCUGGUCAUCGAGUGC [Fam2.1 aminoacylation ribozyme variant] | 3.03 | 4.77 | 3.18 | 2.91 |  | 
CUUCACCUAGGUCAUCGGGCG [Fam2.2 aminoacylation ribozyme variant] | 4.39 |  | 2.75 | 3.57 | 2.97 | 2.36
GAGUUUGCUAAUAGUCGCAAU [Fam3.1 aminoacylation ribozyme variant] | 3.41 | 2.19 |  |  |  | 2.21
UUUACCCUGGUCAUCGAGGGA [Fam2.1 aminoacylation ribozyme variant] | 2.85 | 3.55 |  |  | 2.19 | 
